Data reported in patent US20160257732A1.

How the values were obtained:
[1] = molecular target: recombinant HA (rHA), subtype H7 (A/Netherlands/219/03(H7N7)) (influenza A virus); experiment: ELISA, coated rHA
[2] = molecular target: recombinant HA (rHA), subtype H3 (A/Perth/16/09 (H3N2)) (influenza A virus); experiment: ELISA, coated rHA
[3] = molecular target: recombinant HA (rHA), subtype H2 (A/Swine/MO/06 (H2N3)) (influenza A virus); experiment: ELISA, coated rHA
[4] = molecular target: recombinant HA (rHA), subtype H5 (A/Vietnam/1203/04(H5N1)) (influenza A virus); experiment: ELISA, coated rHA
[5] = molecular target: recombinant HA (rHA), subtype H9 (A/chicken/HK/G9/97(H9N2)) (influenza A virus); experiment: ELISA, coated rHA
[6] = molecular target: recombinant HA (rHA), subtype H6 (A/teal/HK/W312/97(H6N1)) (influenza A virus); experiment: ELISA, coated rHA
[7] = molecular target: His-tagged HA subtype H3 (A/Perth/16/09 (H3N2)) (influenza A virus); experiment: Octet BLI, His-tagged HA on anti-His sensors
[8] = molecular target: His-tagged HA subtype H1 (A/California/7/04 (H1N1)) (influenza A virus); experiment: Octet BLI, His-tagged HA on anti-His sensors

B1: Antibody 10 (antibody, V domains shown)
VH: QVQLQQSGPGLVKPSQTLSLTCAISGDSVSSNSATWNWIRQSPSRGLEWLGRTYYRSKWYNDYADFLKRRITINPDTSNNEVSLRLTSVTPDDTALYYCARGGHITVFGVNIDAFDVWGQGTMVTVSS
VL: DIQMTQSPSSLSASVGDRITISCRTSQSLRSYLHWYQQKPGKAPKLLIYASSTLQSGVPSRFSGSGSGTDFTLTISNLQPEDFATYYCQLSRTFGQGTKVEIK
Q: How did the EC50 [1] turn out when B1 was run?
A: The EC50 was 0.034 µg/mL.

Q: And the EC50 [2]?
A: The EC50 was 0.049 µg/mL.

Q: And the EC50 [3]?
A: Its EC50 is 0.075 µg/mL.

Q: What about the EC50 [4] of the same binder?
A: Its EC50 is 0.058 µg/mL.

Q: What about the EC50 [5] of the same binder?
A: Its EC50 is 2.7 µg/mL.

Q: What about the EC50 [6] of the same binder?
A: The EC50 was 0.097 µg/mL.

B2: Antibody 8 (antibody, V domains shown)
VH: QVQLQQSGPGLVKPSQTLSLTCVISGDTVSSNRATWNWMRQSPLRGLEWLGRTYYRSKWYNDYAVSVKSRVVINPDTSKNQVSLQLNTVTPDDSGVYFCARGGHITVFGVNIDAFDIWGLGTKVTVSS
VL: DIQMTQSPSSLSASVGDRVTISCRASQRLNSYLHWYQQTPGQAPKLLIYATSTLQSGVSPRFSGSGSGTDFTLTISSLQPEDVATYYCQLSRTFGHGTKVEIK
Q: B2 was tested. Which EC50 [1] did it give?
A: Its EC50 is 0.015 µg/mL.

Q: What about the EC50 [2] of the same binder?
A: Its EC50 is 0.067 µg/mL.

Q: What about the EC50 [3] of the same binder?
A: Its EC50 is 0.058 µg/mL.

Q: What about the EC50 [4] of the same binder?
A: The EC50 was 0.044 µg/mL.

Q: And the EC50 [5]?
A: Its EC50 is > 6 µg/mL.

Q: And the EC50 [6]?
A: The EC50 was 0.091 µg/mL.

B3: Antibody 5 (antibody, V domains shown)
VH: QVQLQQSGPGLVKPSQTLSLTCAISGDRVSSNSAVWNWIRQSPSRGLEWLGRTYYRSKWYYDYAESVKSRIVIDPDTSKNQVSLQLNSVTPEDSAIYYCARGGHITVFGLNIDAYDIWGQGAMVTVSS
VL: DIQMTQSPSSLSASVGDRVTISCRAQSLSSYLHWYQQKPGQPPKLLIYAATTLQSGVPSRFSGSGSGTDFTLTISTFQAEDVATYYCQQSRTFGQGTKVEIK
Q: How did the EC50 [1] turn out when B3 was run?
A: Its EC50 is 0.024 µg/mL.

Q: What about the EC50 [2] of the same binder?
A: Its EC50 is 0.03 µg/mL.

Q: What about the EC50 [3] of the same binder?
A: The EC50 was 0.048 µg/mL.

Q: What about the EC50 [4] of the same binder?
A: The EC50 was 0.041 µg/mL.

Q: And the EC50 [5]?
A: The EC50 was > 6 µg/mL.

Q: And the EC50 [6]?
A: The EC50 was 0.047 µg/mL.

Q: What about the Kd [7] of the same binder?
A: The Kd was 0.338 nM.

Q: And the koff [7]?
A: The koff was 8.8e-05 s⁻¹.

Q: And the kon [7]?
A: The kon was 260000 M⁻¹ s⁻¹.

Q: And the Kd [8]?
A: Its Kd is 0.005 nM.

Q: And the koff [8]?
A: The koff was < 5e-06 s⁻¹.

Q: What about the kon [8] of the same binder?
A: Its kon is 1e+06 M⁻¹ s⁻¹.

B4: Antibody 6 (antibody, V domains shown)
VH: QVQLQQSGPGLVKPSQTLSLTCAISGDRVSSNSAVWNWIRQSPSRGLEWLGRTYYRSKWYYDYAESVKSRIVIDPDTSKNQVSLQLNSVTPEDSAIYYCARGGHITEFGLNIDAYDIWGQGAMVTVSS
VL: DIQMTQSPSSLSASVGDRVTISCRAQSLSSYLHWYQQKPGQPPKLLIYAATTLQSGVPSRFSGSGSGTDFTLTISTFQAEDVATYYCQQSRTFGQGTKVEIK
Q: How did the EC50 [1] turn out when B4 was run?
A: Its EC50 is 0.116 µg/mL.

Q: What about the EC50 [2] of the same binder?
A: The EC50 was 0.064 µg/mL.

Q: What about the EC50 [3] of the same binder?
A: The EC50 was 0.213 µg/mL.

Q: And the EC50 [4]?
A: Its EC50 is 0.256 µg/mL.

Q: What about the EC50 [5] of the same binder?
A: The EC50 was > 6 µg/mL.

Q: What about the EC50 [6] of the same binder?
A: The EC50 was 0.214 µg/mL.
